Legend:
Settings in all cases: both partners purified
[1] = target: H1 hemagglutinin (A/New Caledonia/20/1999(H1N1)), recombinant HA trimer used for electron microscopy (influenza A virus A/New …, UniProt Q6WG00); assay: cryo-EM structure
[2] = target: T1, biotinylated H1 A/NewCaledonia/20/1999 (NC99) HA ectodomain (Influenza A virus A/New …, UniProt Q6WG00, strain, biotin (site not stated)); assay: BLI; Octet Red384; […]; Fab at 1600, 400, 100 and 25 nM; PBS + 1% BSA; 180 s association, 300 s dissociation
[3] = target: biotinylated H1 A/Michigan/45/2015 (MI15) HA ectodomain (Influenza A virus A/Michigan/45/2015 …, UniProt A0A1J0CXU0, strain, biotin (site not stated)); assay: as above
[4] = target: T1, biotinylated H1 A/NewCaledonia/20/1999 …; assay: […] (MSD) binding assay; […]

B1: 2-2-1G06 Fab (Fab, V domains shown)
VH: QVQLRESGPGLVKPSQTLSLTCTVSGDSISNGGLYWNWIRQRPGRGLEWIGYIYYNGVTTYNPSLRSRIAISLETAKNQLSLRLSSVSAADTAIYYCAREGWVPDYGGRNYYLDFWGQGTLVTVSS
VL: DIQMTQSPSSLSASVGDRVTITCRASHNIQNFLNWYQQKPGKAPKLLIYAASTLQSGVPSRFSGSGSRTDFTLTISSLQPEDFAAYYCQQSYGLPRTFGQGTRLEIK
- binding result [1]: binds
- binding result [2]: binds
- binding result [3]: binds

B2: 2-2-1G06 monoclonal antibody (IgG1) (antibody, V domains shown)
VH: QVQLRESGPGLVKPSQTLSLTCTVSGDSISNGGLYWNWIRQRPGRGLEWIGYIYYNGVTTYNPSLRSRIAISLETAKNQLSLRLSSVSAADTAIYYCAREGWVPDYGGRNYYLDFWGQGTLVTVSS
VL: DIQMTQSPSSLSASVGDRVTITCRASHNIQNFLNWYQQKPGKAPKLLIYAASTLQSGVPSRFSGSGSRTDFTLTISSLQPEDFAAYYCQQSYGLPRTFGQGTRLEIK
notes: IgG1; copies: 2 + 2
- binding result [4]: binds

B3: 1-1-1F05 Fab (Fab, V domains shown)
VH: QVQLQESGPGLVKPSATLSLTCTLSGGSLSTHYWSWIRQPPGKGLEYIGNIHYSGSTNYNPSLRSRVTISVGTSKNQFSLKLTSVTAADTAVYYCARDAPYSDFLSGVETGWFDPWGQGTLVIVSS
VL: EIVMTQSPATLSVSPGERATLSCRASQSVSSNLAWYQQKPGQAPRLLIYGASTRATGIPARFSGSGSGTDFTLTISSLQSEDFAVYSCQQYNNWPWTFGQGTKVEIK
notes: source: Expi293, transfected, IgG purified (Protein A); Fab by papain digestion, SEC
- binding result [1]: binds

B4: 1-1-1E04 Fab (Fab, V domains shown)
VH: QVQLVQSGAQLRKPGSSVTVSCKASGDTFNSYSIHWVRQAPGQGLEWMGRIIPVFGMTHYAQRFRGRITVSADKSTRTAYMELTSLTSADTAMYYCARDGGDKFHSSGHFETNQGYFDHWGQGALVTVSS
VL: QSVLTQPPSVSGAPGQRVTVSCTGSSSNLGATYEVHWYQQFPGTAPKLLIYGSTNRPSGVPERFSGSKSGTSASLTITGLQAEDEADYYCQSYDTSLRGFYVFGTGTKVTVL
notes: Parent IgG1
- binding result [1]: binds

Source: publication doi:10.1101/2023.08.23.554525 (bioRxiv, 2023)
